Experimental data reported in patent US20200040071A1 (HUB BIOTECH, published 2020).
Substitutions are numbered along the chain they refer to.

Tests used:
[1] = biological target: T1, endothelial monocyte activating polypeptide II (EMAP II) (UniProt Q12904 147-312, limits assumed); test: SPR, Reichert SR7500DC, EMAP II fixed to PEG chip, antibody flowed
T1 construct: also called EMAP II antigen; EMAP II protein
T1 sequence (looked up): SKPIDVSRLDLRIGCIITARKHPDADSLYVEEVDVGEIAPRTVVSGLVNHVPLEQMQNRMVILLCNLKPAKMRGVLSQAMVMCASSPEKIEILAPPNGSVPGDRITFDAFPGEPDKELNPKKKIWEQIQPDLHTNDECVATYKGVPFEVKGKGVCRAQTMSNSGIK
Experimental: (§1) A surface plasmon resonance (SPR) method was used to further compare the antigen-binding abilities between BAP015-hum03 and BAP072-EMAP II-1. Reichert SR7500DC system (Reichert Technologies, Depew, N.Y.) was used for SPR, and Scrubber2 software was used for data collection. 2.5 μg of EMAP II protein was fixed to PEG chip (Reichert Technologies), after which BAP015-hum03 and BAP072-EMAP II-1 antibodies were flowed thereinto to compare the binding abilities therebetween.

[2] = biological target: T1, endothelial monocyte activating …; test: SPR (Reichert SR7500DC), EMAP II protein fixed to a PEG chip (ligand printed on the sheet as hAIMP1), antibody as analyte at 0-40 nM
Experimental: as §1

[3] = biological target: T1, endothelial monocyte activating …; test: ELISA, EMAP II coated at 1 ug/ml, anti-IgG-HRP detection, absorbance at 450 nm
Experimental: (§2) Each well of a 96-well plate was coated with 100 μl of EMAP II antigens at a concentration of 1 μg/ml, and incubated at 37° C. for 2 hours. The coated antigens were blocked with 5% BSA and washed with washing buffer solution. […] The resulting ones were washed 3 times with washing buffer solution, then treated with anti-IgG-HRP antibodies, and then incubated for 1 hour. Then, the resulting ones were washed 3 times with washing buffer solution, and treated with a substrate for 30 minutes at room temperature. Color development was performed, after which stop solution was inserted thereinto, such that absorbance was measured at a wavelength of 450 nm to test an antigen-binding ability of the antibodies.

[4] = biological target: T1, endothelial monocyte activating …; test: ELISA, plate coated with EMAP II antigen (1 µg/ml), detection with anti-IgG-HRP, OD 450 nm
Experimental: as §2

B1: BAP015-hum03 antibody (antibody, V domains shown)
VH: EVQLVQSGAEVKKPGATVKISCKVSGYTFTSYTMHWVRQAPGQGLEWMGYINPSSGFTNYNQKFKDRVTISADKSISTAYLQWSSLKASDTAMYYCASRFAYWGQG
VL: AIQLTQSPSSLSASVGDRVTITCKASQDVSTAVAWYQQKPGKAPKLLIYSASYRYTGVPSRFSGSGSGTDFTFTISRLEPEDFAVYYCQQHYSIPYTFGQG
notes: The printed variable regions end at FGQG (light) and WGQG (heavy), so they seem to stop short of the end of framework 4; also called anti-EMAP II parent antibody; control group
A Kd [1] of 709 pM, a koff [2] of 5.38e-05 s⁻¹ and a kon [2] of 75900 M⁻¹ s⁻¹ were found for B1 in this work.

B2: BAP072-EMAP II-3 antibody (antibody, V domains shown)
VH: B1 VH with S54R, N61R, D66H, A97F
VL: B1 VL with R54G
notes: also called BAP072-EMAP 11-3
In the case of B2, the “concentration of antibodies to reach O.D 2.5” value (from here on “concentration of antibodies”) [3] is reported as at least 100 ng/mL.

B3: BAP072-EMAP II-1 antibody (antibody, V domains shown)
VH: B1 VH with S54R, N61R, D66H, A97F
VL: B1 VL with T56W
B3 was tested, and the Kd [1] was 63 pM, the “fold antigen-binding ability against BAP015-hum03” value [1] was about 10 fold and the “concentration of antibodies” value [3] was at most 10 ng/mL. The “fold antigen-binding ability against the other antibodies (BAP015-hum03, BAP072-EMAP II-2, II-3, II-4)” value [3] was about 10 fold, the “EC50 (read off the curve)” value [4] was about 7 ng/mL and the koff [2] was 1.7e-06 s⁻¹. For the same binder, the kon [2] was 27000 M⁻¹ s⁻¹.

B4: BAP072-EMAP II-4 antibody (antibody, V domains shown)
VH: B1 VH with I51T, N61T, T69H, M93W
VL: B1 VL with R54G
In the case of B4, the “concentration of antibodies” value [3] is reported as at least 100 ng/mL.

B5: BAP072-EMAP II-2 antibody (antibody, V domains shown)
VH: B1 VH with I51T, N61T, T69H, M93W
VL: B1 VL with T56W
notes: also called BAP072-EMAP 11-2
For B5, the “concentration of antibodies” value [3] was at least 100 ng/mL.
